Reference: paper PMC3268815 (Nature, 2011)
Where a chain is given by its changes, count along the chain named. Numbers in names are those of the source.

Legend:
crystal structure = biological target: the molecule itself; test: crystal structure
fibrinogen fragment D [1] = biological target: T1, fibrinogen fragment D (human, UniProt P02671 130-216; P02675 164-491; P02679 114-432); test: crystal structure
T1 sequence 1: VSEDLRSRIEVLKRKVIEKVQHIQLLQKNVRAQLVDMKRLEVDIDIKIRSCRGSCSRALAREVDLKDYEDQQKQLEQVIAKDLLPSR
T1 sequence 2: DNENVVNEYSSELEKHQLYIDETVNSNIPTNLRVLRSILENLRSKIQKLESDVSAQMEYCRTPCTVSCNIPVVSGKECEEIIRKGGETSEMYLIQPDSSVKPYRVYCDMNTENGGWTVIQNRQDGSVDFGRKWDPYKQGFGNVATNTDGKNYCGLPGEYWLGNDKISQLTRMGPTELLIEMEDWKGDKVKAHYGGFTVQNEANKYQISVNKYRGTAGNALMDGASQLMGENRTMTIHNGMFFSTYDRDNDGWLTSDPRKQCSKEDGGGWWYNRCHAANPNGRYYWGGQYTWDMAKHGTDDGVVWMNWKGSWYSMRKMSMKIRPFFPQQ
T1 sequence 3: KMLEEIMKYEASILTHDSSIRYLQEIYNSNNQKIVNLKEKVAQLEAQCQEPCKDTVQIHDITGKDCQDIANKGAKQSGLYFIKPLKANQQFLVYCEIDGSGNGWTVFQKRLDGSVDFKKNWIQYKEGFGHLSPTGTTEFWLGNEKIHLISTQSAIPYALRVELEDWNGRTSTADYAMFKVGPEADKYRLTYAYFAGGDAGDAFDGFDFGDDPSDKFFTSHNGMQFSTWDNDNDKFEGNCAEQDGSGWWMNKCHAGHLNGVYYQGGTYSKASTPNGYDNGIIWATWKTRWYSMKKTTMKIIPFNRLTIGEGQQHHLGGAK

fibrinogen fragment D [2] = biological target: T1, fibrinogen fragment D; test: pull-down

B1: M1^BC1 (M1 fragment with B-repeats, S-region and first C-repeat) (domain or fragment, UniProt Q99XV0 128-263, looked up)
chain: WDRQRLEKELEEKKEALELAIDQASRDYHRATALEKELEEKKKALELAIDQASQDYNRANVLEKELETITREQEINRNLLGNAKLELDQLSSEKEQLTIEKAKLEEEKQISDASRQSLRRDLDASREAKKQVEKDL
Question: Which “stoichiometry N” value (crystal structure) does the source give for B1 here?
Answer: 2

B2: selenomethionine-substituted M1^BC1(I148M) (domain or fragment, UniProt Q99XV0 128-263, looked up)
chain: B1 chain with I21M
modifications: selenomethionine-substituted
Question: Does B2 bind (fibrinogen fragment D [1])?
Answer: binds

B3: M1 B2C (residues 162-189 deleted and inserted after C-terminal residue 453) (natural protein, UniProt Q99XV0 42-453, looked up)
chain: NGDGNPREVIEDLAANNPAIQNIRLRYENKDLKARLENAMEVAGRDFKRAEELEKAKQALEDQRKDLETKLKELQQDYDLAKESTSWDRQRLEKELEEKKEALELAIDQASRDYHRATALEKELETITREQEINRNLLGNAKLELDQLSSEKEQLTIEKAKLEEEKQISDASRQSLRRDLDASREAKKQVEKDLANLTAELDKVKEDKQISDASRQGLRRDLDASREAKKQVEKDLANLTAELDKVKEEKQISDASRQGLRRDLDASREAKKQVEKALEEANSKLAALEKLNKELEESKKLTEKEKAELQAKLEAEAKALKEQLAKQAEELAKLRAGKASDSQTPDTKPGNKAVPGKGQAPQAGTKPNQNKAPMKETKRQLPSTEKELEEKKKALELAIDQASQDYNRANVL
Question: Does B3 bind (fibrinogen fragment D [2])?
Answer: binds
